Patent US5856125

Molecular target: T1, ERF (Homo sapiens) (UniProt P50548)
T1 sequence: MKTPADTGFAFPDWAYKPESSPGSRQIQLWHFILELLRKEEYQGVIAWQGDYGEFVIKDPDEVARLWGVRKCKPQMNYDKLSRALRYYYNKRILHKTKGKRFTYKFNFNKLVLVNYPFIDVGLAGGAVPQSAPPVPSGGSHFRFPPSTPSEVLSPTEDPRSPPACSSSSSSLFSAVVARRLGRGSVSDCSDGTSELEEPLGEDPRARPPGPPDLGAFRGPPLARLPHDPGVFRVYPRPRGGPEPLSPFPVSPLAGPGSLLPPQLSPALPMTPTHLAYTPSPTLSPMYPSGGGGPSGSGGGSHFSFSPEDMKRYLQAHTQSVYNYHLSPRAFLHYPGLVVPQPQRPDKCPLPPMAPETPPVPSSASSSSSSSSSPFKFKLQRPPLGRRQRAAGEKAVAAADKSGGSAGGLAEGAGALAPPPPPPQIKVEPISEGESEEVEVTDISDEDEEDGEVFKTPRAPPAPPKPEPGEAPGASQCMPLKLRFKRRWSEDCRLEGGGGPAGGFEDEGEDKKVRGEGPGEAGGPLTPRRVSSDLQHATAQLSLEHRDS
Assay: cell_activity
Conditions: HeLa CAT reporter; values over 30 set to 30

Substance: ETS2 promoter -394 to +125
- activity (fold repression): > 30
